According to patent US20230313199A1, “TARGET FOR MODULATING BODY MASS” (Massachusetts Institute of Technology, priority 2020, published 2023):
Read-outs that look alike come from different tables or passages of the source. Residues, ends and D or L forms follow the SMILES beside them. *: point of attachment. Cbz = O=C(OCc1ccccc1)*

B1: endogenous MFSD7C of mouse bone marrow-derived macrophages (other, UniProt Q91X85 1-551, looked up)
chain: MVNESLNQEESNDRPAPESEFQMDTSYSTQPSGSIHPSVSGHPSVSGHPSVSGHPSVSIHPSVSIDPSVSVRPSSSALPSTLAQPSGLTHHSSLVREDSVIKVSKRRWVVVLVFSCYSLCNAFQWIQYGSINNIFMNFYGVSAFAIDWLSMCYMLTYIPLLLPVAWMLEKFGLRTIAITGSALNCLGAWVKLGSLEPHLFPVTMVGQVICSVAQVFILGMPSRIASVWFGADEVSTACSVAVFGNQLGIAIGFLVPPVLVPNIKDPEKLAYHISIMFYIIGGVATFLFILVIIVFKEKPKHPPSRAQSLSYALATTDASYLSSIVRLFKNLNFVLLVITYGLNAGAFYALSTLLNRMVILHFPGEEVNAGRIGLTIVIAGMFGAMISGIWLDKSKTYKETTLVVYIMTLVGMVVYTFTLNLNHLWVVFITAGTLGFFMTGYLPLGFEFAVELTYPESEGVSSGLLNVSAQVFGIVFTISQGQIIDNHGTMFGNIFLCVFLALGSALTAFIKSDLRRQRANKDAPETKVQEEEEEEEGSNTSKVPVVSEAHL

Assays:
SERCA2b = SERCA2b level and ubiquitination by pull-down and Western blotting in transfected 293T cells; type: cell-based, murine
Method: (§1) FIGS. 5A-5F show MFSD7C and heme regulate thermogenesis through SERCA2b in THP-1 cells. […] 30 hours later, MG132 was added into half of the cells and the other half was not treated. Another 35 hours later, some cells were treated with 40 μM heme for 1 hour before lysis. Cell lysates were immunoprecipitated with anti-FLAG antibody, and eluted, followed by anti-HA immunoprecipitation and elution. Total cell lysate and elute were subjected to Western blotting and probed with anti-SERCA2b or anti-MFSD7C antibodies. Shown are representative data from one of three experiments. […] 24 hrs later, cells were either not treated or treated with 10 μM MG132 for either 6 or 12 hours. The cells were lysed and subjected to FLAG pull-down and blotted with anti-MFSD7C, anti-SERCA2b and anti-ubiquitin antibodies. Shown are representative data from one of three experiments. […] Parental THP-1 cells were either not treated or treated with heme before lysis. Shown are representative data from one of four experiments. […] Shown are representative data from one of two experiments. […] Cells were washed and treated with 40 μM heme for one hour before flow cytometry. Representative FPT histograms from one of three experiments are shown. […] Shown are representative FPT histograms from one of three experiments. […]

MFSD7C and SERCA2b = molecular target: T1, MFSD7C and SERCA2b (Mus musculus, UniProt Q91X85); assay: Co-IP of MFSD7C and SERCA2b in transfected 293T cells; type: cell-based, murine; details: 293T cells in the presence of MG132; none co-precipitated without
T1 construct: expressed in transfected cells; called 293T
Method: as §1

HP motif peptide = molecular target: T2, HP motif peptide (Homo sapiens, UniProt Q9UPI3); assay: Isothermal titration calorimetry of HP motif peptide binding to heme (one-site model); details: synthetic 14-amino acid HP motif peptide, one-site binding model
T2 construct: a synthetic 14-amino acid HP motif peptide; made in house; host or cells: chemical solid-phase synthesis (Koch Institute Biopolymers & Proteomics Core)

NTD of human MFSD7C = molecular target: T3, NTD of human MFSD7C (Homo sapiens, UniProt Q9UPI3); assay: Isothermal titration calorimetry of NTD binding to heme; details: ITC, 25° C., 3-site sequential binding model
T3 construct: Plasmid harboring GST-His-tag-SUMO-NTD (amino acids 1-84); GST-His-tag-SUMO (N, cleaved yes); made in house; host or cells: Escherichia coli Lemo21(DE3)
T3 sequence (Q9UPI3 1-84): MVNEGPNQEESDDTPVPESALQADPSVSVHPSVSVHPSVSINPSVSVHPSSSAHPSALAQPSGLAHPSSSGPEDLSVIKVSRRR

[1] = molecular target: endogenous human SERCA2b of THP-1 cells (human) (UniProt P16615); assay: cell-based or functional assay
[2] = molecular target: T4, endogenous mouse SERCA2b (ATP2a2) (mouse, UniProt O55143 1-1044); assay: co-IP of endogenous proteins, mouse bone marrow-derived macrophages
T4 construct: also called endogenous SERCA2b

HA-tagged murine MFSD7C [3] = molecular target: T5, HA-tagged murine MFSD7C (mouse, UniProt Q91X85 1-551); assay: co-IP and Western blot, co-transfected 293FT cells, without heme (less or very little with 10 or 40 µM heme)
T5 construct: Expressed by transfection in 293FT / HEK 293T cells; also called HA-MFSD7C; pCMV6-AN-3HA-MFSD7C; not shown: N-terminal HA tag from vector pCMV6-AN-3HA
T5 sequence (looked up): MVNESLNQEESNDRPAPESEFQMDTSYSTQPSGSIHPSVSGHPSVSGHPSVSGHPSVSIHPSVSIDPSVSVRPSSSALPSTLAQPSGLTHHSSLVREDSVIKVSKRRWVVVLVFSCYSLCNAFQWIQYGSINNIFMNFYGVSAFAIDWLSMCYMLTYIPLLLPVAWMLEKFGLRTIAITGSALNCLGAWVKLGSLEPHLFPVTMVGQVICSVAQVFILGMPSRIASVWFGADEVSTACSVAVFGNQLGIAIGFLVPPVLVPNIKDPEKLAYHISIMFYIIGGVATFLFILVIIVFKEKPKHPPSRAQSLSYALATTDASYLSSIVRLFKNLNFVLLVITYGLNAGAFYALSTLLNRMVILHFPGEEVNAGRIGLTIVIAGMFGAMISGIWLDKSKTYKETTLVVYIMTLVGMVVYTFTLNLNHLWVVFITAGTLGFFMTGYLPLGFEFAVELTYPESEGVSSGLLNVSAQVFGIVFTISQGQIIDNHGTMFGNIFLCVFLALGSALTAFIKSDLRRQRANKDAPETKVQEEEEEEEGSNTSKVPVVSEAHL
Method: (§2) Co-transfection and immunoprecipitation. For co-IP, HA-tagged MFSD7C was co-transfected with FLAG-tagged HMOX1 (Origene Catalog No. MR203944), CYC1, COX4I1, NDUFA4, ATP5h, ATP5c1 into 293FT cells using TransIT®-LT1 Transfection Reagent (Mirus). Thirty-six hours after transfection, the cells were lysed using cold Lysis Buffer containing 20 mM Tris-HCl (pH 7.4), 150 mM NaCl, 0.1% NP-40, 10% glycerol, proteinase inhibitor (Sigma Catalog No. 4693132001), and phosphatase inhibitors (Sigma Catalog No. 4906845001). The clear supernatants from the lysate were incubated with M2-magnetic beads conjugated with anti-FLAG antibody (Sigma Catalog No. M8823) for 2 hours at 4° C. Then the beads were washed twice and eluted by the 3× FLAG peptides (Sigma Catalog No. F4799).
(§3) To determine the effect of heme on MFSD7C interactions with ETC components, HMOX1 or SERCA2b, 293FT cells were transiently transfected with HA-tagged murine MFSD7C and FLAG-tagged murine CYC1, NDUFA4, COX4i1, ATP5h, ATP5c1, HMOX1 or SERCA2b. 35 hrs later, co-transfected cells were incubated with DMSO (vehicle) or 10 μM or 40 μM of heme for one hour before lysis. Cell lysates were precipitated with anti-HA antibody, eluted with HA peptide, further precipitated with anti-FLAG antibody, eluted with FLAG peptide, and then subjected to Western blotting with anti-HA and anti-FLAG antibodies. Cells were treated with proteasome inhibitor MG132 for co-IP between MFSD7C and SERCA2b.

[4] = molecular target: B1; assay: co-IP of endogenous proteins, mouse bone marrow-derived macrophage lysate
HA-tagged murine MFSD7C [5] = molecular target: T5, HA-tagged murine MFSD7C; assay: co-IP and Western blot, co-transfected 293FT cells, with or without 10 or 40 µM heme
Method: as §2
as §3, with “Cells were treated with proteasome inhibitor MG132 for co-IP between MFSD7C and SERCA2b.” left out

Sequence of endogenous human SERCA2b of THP-1 cells (human) (P16615 whole entry): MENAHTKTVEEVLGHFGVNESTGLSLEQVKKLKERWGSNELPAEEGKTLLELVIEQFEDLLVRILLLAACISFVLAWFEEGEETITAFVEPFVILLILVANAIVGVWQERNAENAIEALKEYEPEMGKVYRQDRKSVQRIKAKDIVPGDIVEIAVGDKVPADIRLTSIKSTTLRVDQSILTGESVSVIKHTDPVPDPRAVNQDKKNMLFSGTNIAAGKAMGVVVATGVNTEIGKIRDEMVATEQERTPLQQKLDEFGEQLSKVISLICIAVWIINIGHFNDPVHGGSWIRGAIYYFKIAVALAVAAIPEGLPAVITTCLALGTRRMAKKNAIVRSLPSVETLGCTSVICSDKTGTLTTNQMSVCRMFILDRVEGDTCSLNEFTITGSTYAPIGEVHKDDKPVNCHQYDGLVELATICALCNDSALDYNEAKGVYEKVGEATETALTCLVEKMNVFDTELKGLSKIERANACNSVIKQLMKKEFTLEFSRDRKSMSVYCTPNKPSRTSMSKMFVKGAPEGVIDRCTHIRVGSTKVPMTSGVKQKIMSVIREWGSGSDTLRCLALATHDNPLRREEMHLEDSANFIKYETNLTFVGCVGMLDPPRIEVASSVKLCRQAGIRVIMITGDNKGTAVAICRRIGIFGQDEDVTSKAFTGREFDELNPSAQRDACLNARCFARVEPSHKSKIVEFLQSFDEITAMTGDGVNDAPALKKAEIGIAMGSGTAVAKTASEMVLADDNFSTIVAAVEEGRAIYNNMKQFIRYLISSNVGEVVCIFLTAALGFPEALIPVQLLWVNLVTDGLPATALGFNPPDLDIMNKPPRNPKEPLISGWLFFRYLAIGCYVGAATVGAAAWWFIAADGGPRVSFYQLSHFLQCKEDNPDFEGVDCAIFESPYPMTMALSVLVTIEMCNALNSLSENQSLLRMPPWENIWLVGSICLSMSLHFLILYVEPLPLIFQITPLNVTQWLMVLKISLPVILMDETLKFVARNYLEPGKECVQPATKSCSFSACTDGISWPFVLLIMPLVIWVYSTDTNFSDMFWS
T4 sequence (O55143 whole entry): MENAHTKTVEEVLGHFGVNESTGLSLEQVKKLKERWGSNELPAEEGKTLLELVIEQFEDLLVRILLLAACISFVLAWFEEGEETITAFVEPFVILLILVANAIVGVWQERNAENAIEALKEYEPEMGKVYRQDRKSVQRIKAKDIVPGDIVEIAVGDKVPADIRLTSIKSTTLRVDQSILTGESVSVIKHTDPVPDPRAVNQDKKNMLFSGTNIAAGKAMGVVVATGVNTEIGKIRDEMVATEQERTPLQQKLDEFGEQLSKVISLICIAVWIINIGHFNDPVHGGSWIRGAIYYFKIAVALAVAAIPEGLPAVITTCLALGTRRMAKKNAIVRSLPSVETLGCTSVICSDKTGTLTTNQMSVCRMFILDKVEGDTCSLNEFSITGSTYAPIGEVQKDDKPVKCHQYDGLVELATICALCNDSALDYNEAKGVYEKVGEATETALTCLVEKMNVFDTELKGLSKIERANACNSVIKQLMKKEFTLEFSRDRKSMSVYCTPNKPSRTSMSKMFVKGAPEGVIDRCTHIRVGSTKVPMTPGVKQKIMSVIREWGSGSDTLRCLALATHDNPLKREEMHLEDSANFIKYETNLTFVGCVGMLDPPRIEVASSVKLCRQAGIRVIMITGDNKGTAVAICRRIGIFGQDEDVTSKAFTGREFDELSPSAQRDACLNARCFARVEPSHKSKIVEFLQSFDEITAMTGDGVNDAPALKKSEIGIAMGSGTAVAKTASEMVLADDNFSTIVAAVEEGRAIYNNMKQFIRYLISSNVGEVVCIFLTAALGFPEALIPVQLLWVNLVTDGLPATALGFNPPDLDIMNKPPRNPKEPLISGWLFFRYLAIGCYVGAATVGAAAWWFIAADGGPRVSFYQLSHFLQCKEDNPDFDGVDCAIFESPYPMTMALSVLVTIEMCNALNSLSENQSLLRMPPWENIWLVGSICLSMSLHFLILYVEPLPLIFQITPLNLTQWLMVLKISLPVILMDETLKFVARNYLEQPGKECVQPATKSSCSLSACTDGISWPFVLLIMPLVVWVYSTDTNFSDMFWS

CC(C)C[C@@H](C=O)NC(=O)[C@H](CC(C)C)NC(=O)[C@H](CC(C)C)NC(=O)OCc1ccccc1 [MG132] (Cbz-Leu-Leu-Leu-aldehyde)
full-length and ubiquitinated SERCA2b precipitated (SERCA2b; 10 μM MG132 for 6 or 12 hours, longer treatment): more full-length and ubiquitinated SERCA2b was precipitated | level of SERCA2b detected (SERCA2b; presence vs absence of MG132): significantly higher level of SERCA2b was detected | SERCA2b co-precipitated with MFSD7C (MFSD7C and SERCA2b): an appreciable level was co-precipitated with MFSD7C

C=CC1=C(C)C2=Cc3c(C=C)c(C)c4[n]3[Fe][n]3c(c(C)c(CCC(=O)O)c3=CC3=NC(=C4)C(C)=C3CCC(=O)O)=CC1=N2 [heme]
Kd (HP motif peptide): ~1000 nM | Kd (NTD of human MFSD7C; two strong of three heme sites on NTD, read-out: KD, two strong binding sites): ~1000 nM | Kd (NTD of human MFSD7C; weaker of three heme sites on NTD, read-out: KD, one weaker site): ~220000 nM

endogenous human MFSD7C of THP-1 cells (from UniProt Q9UPI3 1-526)
Pearson's correlation coefficient value (co-localization, THP-1 cells after 40 µM heme for 1 hour) [1]: 0.67 | Pearson's correlation coefficient value (co-localization, confocal microscopy of THP-1 cells) [1]: 0.89

B1
binding result [2]: binds

B2: FLAG-tagged murine CYC1 (other, mouse, UniProt Q9D0M3 85-325, looked up)
chain: SDLELHPPSYPWSHRGLLSSLDHTSIRRGFQVYKQVCSSCHSMDYVAYRHLVGVCYTEEEAKALAEEVEVQDGPNDDGEMFMRPGKLSDYFPKPYPNPEAARAANNGALPPDLSYIVRARHGGEDYVFSLLTGYCEPPTGVSLREGLYFNPYFPGQAIGMAPPIYTEVLEYDDGTPATMSQVAKDVATFLRWASEPEHDHRKRMGLKMLLMMGLLLPLTYAMKRHKWSVLKSRKLAYRPPK
notes: Complex III component; expressed by transfection; also called pCMV6-AC-DDK-Cyc1; not shown: C-terminal FLAG (DDK) tag
binding result (HA-tagged murine MFSD7C [3]): binds

B3: FLAG-tagged murine ATP5c1 (other, mouse, UniProt Q91VR2 26-298, looked up)
chain: ATLKDITRRLKSIKNIQKITKSMKMVAAAKYARAERELKPARVYGTGSLALYEKADIKAPEDKKKHLIIGVSSDRGLCGAIHSSVAKQMKNEVAALTAAGKEVMIVGVGEKIKGILYRTHSDQFLVSFKDVGRKPPTFGDASVIALELLNSGYEFDEGSIIFNQFKSVISYKTEEKPIFSLNTIATAETMSIYDDIDADVLQNYQEYNLANLIYYSLKESTTSEQSARMTAMDNASKNASDMIDKLTLTFNRTRQAVITKELIEIISGAAALD
notes: Complex V component; expressed by transfection; also called pCMV6-AC-DDK-ATP5c1; not shown: C-terminal FLAG (DDK) tag
binding result (HA-tagged murine MFSD7C [3]): binds

B4: endogenous HMOX1 of mouse bone marrow-derived macrophages (enzyme, UniProt P14901 1-289, looked up)
chain: MERPQPDSMPQDLSEALKEATKEVHIQAENAEFMKNFQKGQVSREGFKLVMASLYHIYTALEEEIERNKQNPVYAPLYFPEELHRRAALEQDMAFWYGPHWQEIIPCTPATQHYVKRLHEVGRTHPELLVAHAYTRYLGDLSGGQVLKKIAQKAMALPSSGEGLAFFTFPNIDSPTKFKQLYRARMNTLEMTPEVKHRVTEEAKTAFLLNIELFEELQVMLTEEHKDQSPSQMASLRQRPASLVQDTAPAETPRGKPQISTSSSQTPLLQWVLTLSFLLATVAVGIYAM
binding result [4]: binds

B5: FLAG-tagged murine HMOX1 (heme oxygenase-1) (enzyme, mouse, UniProt P14901 1-289, looked up)
chain: MERPQPDSMPQDLSEALKEATKEVHIQAENAEFMKNFQKGQVSREGFKLVMASLYHIYTALEEEIERNKQNPVYAPLYFPEELHRRAALEQDMAFWYGPHWQEIIPCTPATQHYVKRLHEVGRTHPELLVAHAYTRYLGDLSGGQVLKKIAQKAMALPSSGEGLAFFTFPNIDSPTKFKQLYRARMNTLEMTPEVKHRVTEEAKTAFLLNIELFEELQVMLTEEHKDQSPSQMASLRQRPASLVQDTAPAETPRGKPQISTSSSQTPLLQWVLTLSFLLATVAVGIYAM
notes: Expressed by transfection; also called pCMV6-AC-DDK-HMOX1; not shown: C-terminal FLAG (DDK) tag
binding result (HA-tagged murine MFSD7C [5]): binds

B6: FLAG-tagged murine NDUFA4 (other, mouse, UniProt Q62425 1-82, looked up)
chain: MLRQILGQAKKHPSLIPLFVFIGAGGTGAALYVMRLALFNPDVSWDRKNNPEPWNKLGPNEQYKFYSVNVDYSKLKKEGPDF
notes: Complex IV component; expressed by transfection; also called pCMV6-AC-DDK-Ndufa4; not shown: C-terminal FLAG (DDK) tag
binding result (HA-tagged murine MFSD7C [3]): binds
